FireProtDB (doi:10.1016/0168-1656(93)90129-b)

B1: Ribonuclease HI, P0A7Y4 (parent)
chain: MLKQVEIFTDGSCLGNPGPGGYGAILRYRGREKTFSAGYTRTTNNRMELMAAIVALEALKEHCEVILSTDSQYVRQGITQWIHNWKKRGWKTADKKPVKNVDLWQRLDAALGQHQIKWEWVKGHAGHPENERCDELARAAAMNPTLEDTGYQVEV

Variants of: B1
Conditions: Escherichia coli (strain K12), CD, reversible: yes, structure 2RN2, whole UniProt chain shown; for Tm / change of melting temperature, mutant - wild type (higher = more stable): Thermal; for ddG of mutation (higher = less stable) / denaturant midpoint (higher = more stable) / unfolding free energy: 25 °C, GdnHCl

Row | Variant | Tm (pH 3, glycine-HCl 10 mM) [°C] | change of melting temperature, mutant - wild type (higher = more stable) (pH 3, glycine-HCl 10 mM) [°C] | ddG of mutation (higher = less stable) (pH 5.5, Sodium acetate 20 mM) [kJ/mol] | denaturant midpoint (higher = more stable) (pH 5.5, Sodium acetate 20 mM) [M] | unfolding free energy (pH 5.5, Sodium acetate 20 mM) [kJ/mol] | ddG of mutation (higher = less stable) (pH 8.2, Tris-HCl 20 mM) [kJ/mol] | denaturant midpoint (higher = more stable) (pH 8.2, Tris-HCl 20 mM) [M] | unfolding free energy (pH 8.2, Tris-HCl 20 mM) [kJ/mol] | Tm (pH 5.5, Sodium acetate 20 mM) [°C] | change of melting temperature, mutant - wild type (higher = more stable) (pH 5.5, Sodium acetate 20 mM) [°C] | Tm (pH 7.8, Sodium phosphate 20 mM) [°C] | change of melting temperature, mutant - wild type (higher = more stable) (pH 7.8, Sodium phosphate 20 mM) [°C]
1 | MLKQVEIFTDGSCLGNPGPGGYGAILRYRGREKTFSAGYTRTTNNRMELMAAIVALEALKEHCEVILSTDSQYVRQGITQWIHNWKKRGWKTADKKPVKNVDLWQRLDAALGQHQIKWEWVKGHAGAPENERCDELARAAAMNPTLEDTGYQVEV | 50.3 | 0.9 | 1 | 1.74 | 37.5 | 1.3 | 1.59 | 34.2 |  |  |  | 
2 | MLKQVEIFTDGSCLGNPGPGGYGAILRYRGREKTFSAGYTRTTNNRMELMAAIVALEALKEHCEVILSTDSQYVRQGITQWIANWKKRGWKTADKKPVKNVDLWQRLDAALGQHQIKWEWVKGHAGHPENERCDELARAAAMNPTLEDTGYQVEV | 51.5 | 2.1 | -0.92 | 1.83 | 39.5 | 0.377 | 1.63 | 35.1 | 52.8 | 0.1 | 50 | -0.2
3 | MLKQVEIFTDGSCLGNPGPGGYGAILRYRGREKTFSAGYTRTTNNRMELMAAIVALEALKEHCEVILSTDSQYVRQGITQWIHNWKKRGWKTADKKPVKNVDLWQRLDAALGQHQIKWEWVKGAAGAPENERCDELARAAAMNPTLEDTGYQVEV | 53 | 3.6 |  |  |  |  |  |  | 52.1 | -0.6 | 50.1 | -0.1
4 | MLKQVEIFTDGSCLGNPGPGGYGAILRYRGREKTFSAGYTRTTNNRMELMAAIVALEALKEACEVILSTDSQYVRQGITQWIHNWKKRGWKTADKKPVKNVDLWQRLDAALGQHQIKWEWVKGHAGHPENERCDELARAAAMNPTLEDTGYQVEV | 50.7 | 1.3 | -1.51 | 1.86 | 40 | -2.43 | 1.76 | 37.9 |  |  | 51.2 | 1
5 | MLKQVEIFTDGSCLGNPGPGGYGAILRYRGREKTFSAGYTRTTNNRMELMAAIVALEALKEHCEVILSTDSQYVRQGITQWIHNWKKRGWKTADKKPVKNVDLWQRLDAALGQHQIKWEWVKGAAGHPENERCDELARAAAMNPTLEDTGYQVEV | 51.1 | 1.7 | -0.711 | 1.82 | 39.2 | -0.209 | 1.66 | 35.7 | 52.7 | 0 | 50.3 | 0.1
6 | MLKQVEIFTDGSCLGNPGPGGYGAILRYRGREKTFSAGYTRTTNNRMELMAAIVALEALKEACEVILSTDSQYVRQGITQWIANWKKRGWKTADKKPVKNVDLWQRLDAALGQHQIKWEWVKGAAGAPENERCDELARAAAMNPTLEDTGYQVEV | 54.9 | 5.5 |  |  |  |  |  |  |  |  | 51.7 | 1.5
7 | MLKQVEIFTDGSCLGNPGPGGYGAILRYRGREKTFSAGYTRTTNNRMELMAAIVALEALKEHCEVILSTDSQYVRQGITQWIHNWKKRGWKTADKKPVKNVDLWQRLDAALGQAQIKWEWVKGHAGHPENERCDELARAAAMNPTLEDTGYQVEV |  |  |  |  |  |  |  |  |  |  | 42.5 | -7.7
8 | MLKQVEIFTDGSCLGNPGPGGYGAILRYRGREKTFSAGYTRTTNNRMELMAAIVALEALKEACEVILSTDSQYVRQGITQWIANWKKRGWKTADKKPVKNVDLWQRLDAALGQHQIKWEWVKGHAGHPENERCDELARAAAMNPTLEDTGYQVEV |  |  |  |  |  |  |  |  |  |  | 51.5 | 1.3
